This passage reports % decrease in chemically treated particles results from paper PMC3684277.

The experiment deals with HCMV capsid (icosahedral T=16 capsid shell of MCP, mCP, mC-BP and SCP) (human cytomegalovirus strain AD169). As to the kind of experiment: co-sedimentation.

In the case of “UL32-encoded basic phosphorylated protein pp150 (natural protein)”, the % decrease in chemically treated particles was 5%.
